The values below come from US20090075925A1, “Methods and Compositions Related to APOBEC-1 Expression” (priority 2006, published 2009).

One assay has as its system ACF/APOBEC-1 complexes. In words: co-immunoprecipitation of HA-tagged APOBEC-1 with ACF from McArdle nuclear extracts. The settings on record: nuclear extracts treated with CIAP. The format is biochemical, rat. How it is done:
Nuclear extracts were immunoprecipitated with ACF CT antibody and processed as described in FIG. 1. For CIAP treatment extracts were adjusted to 5 mM MgCl2, 3 mM CaCl2, 0.1 mM ZnCl2 and 25% glycerol and then incubated with 5U CIAP for 1 hour at 30° C. Control extracts were treated similarly but lacked phosphatase. The ratios of APOBEC-1:ACF were determined by scanning densitometry and quantitation using ImageJ Software. HC, position of 1g heavy chain. (n=4, standard deviation+/−0.2). […] In vitro editing activity was determined using the poisoned-primer extension assay. The percent editing was quantified by PhoshorImager (Molecular Dynamics) scanning densitometry. Data shown is representative of 3 independent experiments. *Statistical significance was determined to be P≦0.01 by unpaired t-test relative to control. […] Quantitation of relative amounts of ACF bound was performed using PhoshorImager scanning densitometry. Data shown are representative of 4 independent experiments. *Statistical significance was determined to be P≦0.01 by unpaired t-test relative to control.
Given the selective recovery of APOBEC-1 with nuclear ACF (FIG. 1), the interaction between ACF and APOBEC-1 was explored in nuclear extracts was mediated by post-translational modifications such as protein phosphorylation.

Another assay deals with apoB mRNA. In words: ultraviolet light cross-linking of ACF (p66) to apoB RNA in liver nuclear extract. The format is binding, rat. As to the method:
(§1) In vitro editing reactions and RNA binding assays. In vitro editing reactions and quantitative poisoned-primer extension assays were carried out using 80 μg of extract proteins as previously described (Shah et al. (1993), Smith, H. C. (1998)). ApoB RNA binding assays were performed by subjecting nuclear extract (80 μg) to in vitro editosome assembly and ultraviolet crosslinking (Smith, H. C. (1998)).
To further investigate the role of phosphorylation, rat liver nuclear extract was treated with CIAP and assayed for in vitro apoB RNA editing activity. […] Phosphorylation can play a role in the subcellular localization and/or stability of ACF. […] These yields were achieved by treatment of rat primary hepatocytes (40 T25 flasks) with 0.45% ethanol for four hours in the presence of 70 mCi of total inorganic ^32P followed by immunoprecipitation of ACF64/65 (FIG. 32). Two IPs were resolved by PAGE (FIG. 32, Coomassie) and ACF64/65 identified (western).

A further assay has as its target T1, ACF (Rattus norvegicus, UniProt Q923K9).
T1 construct: from tissue; host or cells: rat liver nuclear extract (27S gradient fractions)
T1 sequence (Q923K9 1-586 isoform Q923K9-2): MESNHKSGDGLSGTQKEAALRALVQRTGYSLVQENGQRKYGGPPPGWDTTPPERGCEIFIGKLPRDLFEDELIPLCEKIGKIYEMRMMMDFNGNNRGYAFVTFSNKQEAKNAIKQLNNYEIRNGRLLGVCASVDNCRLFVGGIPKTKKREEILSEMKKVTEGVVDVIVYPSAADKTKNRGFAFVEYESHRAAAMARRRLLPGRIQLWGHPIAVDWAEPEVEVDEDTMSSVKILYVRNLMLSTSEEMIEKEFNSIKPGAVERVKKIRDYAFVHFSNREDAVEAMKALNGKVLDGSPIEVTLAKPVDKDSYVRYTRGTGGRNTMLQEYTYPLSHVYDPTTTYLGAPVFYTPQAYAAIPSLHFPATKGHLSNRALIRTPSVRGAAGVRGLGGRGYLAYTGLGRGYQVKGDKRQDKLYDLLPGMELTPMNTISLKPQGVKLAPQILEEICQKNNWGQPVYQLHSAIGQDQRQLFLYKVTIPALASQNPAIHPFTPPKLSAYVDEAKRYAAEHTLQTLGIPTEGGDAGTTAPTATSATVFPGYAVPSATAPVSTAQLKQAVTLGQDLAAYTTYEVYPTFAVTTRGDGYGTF
Kind of assay: removal of 32P label from immunoprecipitated hepatic ACF. The format is biochemical. The settings on record: in vivo labeled rat hepatic nuclear extract. As to the method: ACF is a phosphoprotein. Previous studies using site-directed mutagenesis of APOBEC-1 and overexpression of protein kinase Co implicated phosphorylation of APOBEC-1 as a mechanism for activating apoB mRNA editing (Chen et al. (2001)). To evaluate whether endogenous ACF is phosphorylated in vivo, rats were radiolabeled for 4 hours via an intraperitoneal injection of orthophosphoric acid in HEPES-buffered saline. Following extensive digestion of hepatic nuclear extracts with DNase I and RNase T1 to remove radiolabeled nucleic acids, ACF was immunoprecipitated with the CT antibody, resolved by SDS-PAGE, transferred to nitrocellulose and analyzed by autoradiography as well as immunoblotting with ACF NT antibody (FIG. 3A). A single band was detected by autoradiography that super-imposed with ACF-specific immunoblot reactivity. Greater than 90% of the ^32P-label was removed by CIAP treatment (FIG. 3B), consistent with the post-translational phosphorylation of protein. […] The amino acid sequence of rat ACF was predicted contain 23 serine/threonine and 7 tyrosine high probability sites of phosphorylation (http://www.cbs.dtu.dk/services.NetPhos and http://expasy.org/tools/scanprosite). […] Nuclear ACF was detected as two predominant charge isoforms (FIG. 3B). […]

The next assay has as its system apoB mRNA editing. Kind of assay: in vitro apoB mRNA editing activity of nuclear extract after phosphatase treatment. The format is biochemical, rat. How it is done: as §1
As an interaction between ACF and APOBEC-1 is critical for editing activity (Metha et al. Mol Cell Biol 20:1846-54 (2000)) the effect of alkaline phosphatase treatment on in vitro editing activity of hepatocyte extracts was investigated.

In a further assay the target is mooring sequence. The following applies: read-out: Kd for the mooring sequence / apoB mRNA; cited from earlier work.

B1: CIAP: Calf Intestinal Alkaline Phosphatase (protein, UniProt P19111 20-506, looked up)
Intestinal-type alkaline …: LVPVEEEDPAFWNRQAAQALDVAKKLQPIQTAAKNVILFLGDGMGVPTVTATRILKGQMNGKLGPETPLAMDQFPYVALSKTYNVDRQVPDSAGTATAYLCGVKGNYRTIGVSAAARYNQCKTTRGNEVTSVMNRAKKAGKSVGVVTTTRVQHASPAGAYAHTVNRNWYSDADLPADAQMNGCQDIAAQLVNNMDIDVILGGGRKYMFPVGTPDPEYPDDASVNGVRKRKQNLVQAWQAKHQGAQYVWNRTALLQAADDSSVTHLMGLFEPADMKYNVQQDHTKDPTLQEMTEVALRVVSRNPRGFYLFVEGGRIDHGHHDDKAYMALTEAGMFDNAIAKANELTSELDTLILVTADHSHVFSFGGYTLRGTSIFGLAPSKALDSKSYTSILYGNGPGYALGGGSRPDVNDSTSEDPSYQQQAAVPQASETHGGEDVAVFARGPQAHLVHGVEEETFVAHIMAFAGCVEPYTDCNLPAPTTATSIPD
On to B1, for which the “reduction in HA-tagged APOBEC-1 recovered with immunoprecipitated ACF” value with ACF/APOBEC-1 complexes was found to be 3 fold. In addition, the “ultraviolet light cross-linking of ACF to apoB mRNA” value in the assay on apoB mRNA (1, 5 or 10 U) is “did not significantly increase ultraviolet light cross-linking of ACF to apoB mRNA”. Further, the “increase in yield of cross-linked p66 compared to control” value in the assay on apoB mRNA (highest CIAP treatment) was found to be 40%. Further, the “32P-label removed from ACF” value with ACF is recorded as “Greater than 90%”. In the assay on apoB mRNA editing (CIAP-treated nuclear extract), the “inhibition of apoB mRNA editing activity relative to control extracts” value stood at 2.5 fold. Also, in the assay with apoB mRNA editing (rat liver nuclear extracts), the “inhibition of in vitro editing activity compared to buffer-treated control extracts” value is greater than 50%.

B2: ACF: APOBEC-1 Complementation Factor (protein, UniProt Q923K9 1-594, looked up)
APOBEC1 complementation factor: MESNHKSGDGLSGTQKEAALRALVQRTGYSLVQENGQRKYGGPPPGWDTTPPERGCEIFIGKLPRDLFEDELIPLCEKIGKIYEMRMMMDFNGNNRGYAFVTFSNKQEAKNAIKQLNNYEIRNGRLLGVCASVDNCRLFVGGIPKTKKREEILSEMKKVTEGVVDVIVYPSAADKTKNRGFAFVEYESHRAAAMARRRLLPGRIQLWGHPIAVDWAEPEVEVDEDTMSSVKILYVRNLMLSTSEEMIEKEFNSIKPGAVERVKKIRDYAFVHFSNREDAVEAMKALNGKVLDGSPIEVTLAKPVDKDSYVRYTRGTGGRNTMLQEYTYPLSHVYDPTTTYLGAPVFYTPQAYAAIPSLHFPATKGHLSNRALIRTPSVREIYMNVPVGAAGVRGLGGRGYLAYTGLGRGYQVKGDKRQDKLYDLLPGMELTPMNTISLKPQGVKLAPQILEEICQKNNWGQPVYQLHSAIGQDQRQLFLYKVTIPALASQNPAIHPFTPPKLSAYVDEAKRYAAEHTLQTLGIPTEGGDAGTTAPTATSATVFPGYAVPSATAPVSTAQLKQAVTLGQDLAAYTTYEVYPTFAVTTRGDGYGTF
As to B2, at mooring sequence, the Kd is 8 nM.
